Results as given in the DeepSol protein solubility set.

Assay: soluble on expression in E. coli; label from the status in PepcDB or PDB records

| Sequence | soluble on expression in E. coli |
| --- | --- |
| MAHHHHHHMECYDNTKQKDLQEEHDVVRNFRRYYFQEKEEMHIAAIKSISDVLKNSISETNFELFINMNEAKCKLNNFINNNQTQQDIISVPHSKRMTIYPIISSCDIYHHFVVKKYTHNENNFHVLKNVIENNADEFSASLQKSLETIGSSSNIMFLNKHTTILTHSNSDCVKSLIMDVVKNQNKQVSIYFTCTSQVNLNYEEKEKKFDENFLEELNKENINITKIDLTQVKDIINKIDFVLIGSEIVTDNGGIINKKGIKLISELCLLYKKPFYVTCQAYKFLKIDKNKCSKDFYTFCTQTVTNNFNNIYEFVSPDFITLFYTDIGIFPPSNISYELSKLYINDAFYF | soluble |
| MAHHHHHHMEDFLTKLKKISEQYNNLLLEKKIIDKRIANIGENIRKYEETREKSLEDVELKKNQLLKNKNKHIIMCQKMEQLNGKLNEILIRKQSIDDDEEKKVINKQIHTVNNTYVLLKHVQNLNDAMLKDEGNRYYKLITENIHSKSFSNRKTLNILNSFLRKSRANIQERGSEGAKSSTPPAAIHSANYFKIIQTNDIVQKLLDLFSGDHTALTIDKQQFLFVLLMNVLRKIACASEMAIPPEDCNSRHHVIYNFLHNKYILHL | soluble |
| MAHHHHHHMEESDEDDNIQVIVFGNSSEAKFDDFYREEDIKKEEIQDNINDAMVPNESNEQDKAQNEDVDLESKVQNATKENKVFMKYDYTHEKPWSNHGDKSMWFNYNFDEHTFKEWVQKHIDRKLEKQQNYQIENTDNYFFEDTFKGNMMNTSSVNNQSMQGIKSFPSKNMNPFNTSKLIEHNGSPNYTSNKMDKIKNNNNNNNNKNNSNSNNKNNSNNKNNSNSNNRSDINQTTTNTNNDLKQFQNLINFLKQNN | not soluble |
| MAHHHHHHMEGASHEAAEHTSASAMTRKERKKIEKSEKQAEELRQLSKKANAVNGDTDNPFSVTLETDQIAEGSRNITFNKVSVSVNGKTLFKDTTVKLSAGSRYGLMGPNGRGKSTILRLLASRELPVQSNLDLLLVEQEQEFTASELSAVDAVLQSHKKQNACADEAKALGAKAELSEAEMERLHFLEEELDIMGAAQADARARRILFGLGFPTEWHERPTSSFSGGWRKRIALASAVFIEPDVLMLDEPTNHLDLNAVIWLESYLTKAYSEMARRPKTLIVVSHDAGFLDEVCTHMVHVENYMLNYYRGSYSSFDEQLQQRHQELDKKYESVAKTIRDKKRNGMSNAQVEVWIKDQVNSGRLDPLFLEKRRDYTVNFPFPDPPELRDGCVCKLDSVSFNYPGGPVLFQNVSCALWTDSRITLCGPNGIGKSTLLNLMTGVLEPTAGYITLNRQVRIGRYNQHFVDKLPLEKTPVECIQALGIPEEDKARRLLGSFGLEGIVHKNQIATLSGGQKARVAFAAISAESPHFLLFDEPTNHLDVESIDALCTAIRNFKGGVLVVTHDARLIESTEMQIWVAGDKNVMPFNGSLDDYKNVVRAEFEKEEAMRLEERKQLLEHKTEARQLKQSGVADVTTALQEKKEKKQHEHAQGLDAFLTAAAKKKKPKKAKEES | soluble |
| MAHHHHHHMEGQSELVERVVRMQLTSPDFAEYCVAHVTDPKHRFLFSRNEDEAERRLYVRLLEGRGHQKRAETPAVVAPAFAPERTSSLMTHGGTAVLWMSLLDYFSSTPGVRGPHMPHMFRTEADLTAFVDMLDGAQREHVSLEDVVQFMLRRLPMTEVFLYVLCYMCDVRIHEVRRETRRRSSGACVTDSADGASDEKKLQAAGTLLFIANMLLLQHDALERPLRYLSVFEFYMQRMVEALAGTVPKNSPVDTFLRETVMVWSEGHVFGEEALDCMKRAIGCSLG | not soluble |
| MAHHHHHHMEKDDHYKTSEKYEICTSFENIGIDEGLLRGIYAYGFEKPSAIQQRGIKPILNGRDVILQSQSGTGKTCVFAVGALNCVNRNLNETQVIILSPTRELAEQTQKVCLALADYIHVTIYCCIGGKKMSDDIKALNNGVHVISGTPGRIYHMLNLRHLKCKYIKQLVIDEADEMLNKGFKEQVYDIYRFLSPNTQIILSSATLPQEVLEITNKFMHKPVKILVKRDELTLEGIKQFFVSIEKEQWKYETLADLYESLTITQAVVFCNTQMKVDWLTKKMLESNFTVCKMHAGMSQSERDDIMLKFRQCKFRVLISTDIWGRGLDVQEVSLVVNYDLPNSRESYIHRIGRSGRFGRKGVAINFVKNDDIKILRDIEQYYSTQIDEMPMNITELL | not soluble |
| MAHHHHHHMEPLIIDNLYKFGDEEVRLGIDEAGRGPVLGPMVYAGFYCNKEHEKLLKEMKIDDSKKISEADREMMFHKLNNSSLPFGWRIHVLMPQDISAKMLKKQKYNLNEISHDTAISIIDHVISRGCNLTEVFVDTVGKPSVYEEKLKRLFPHIKCTVKEKADSLYPVVSAASICAKVTRDFLIKKWKYEEPLVNIDKGFGSGYPGDPITKNFLKNNFDTVFGFPSIVRFSWSTADNMLETMGEQIEWYDDIENNDSKAIKRKTPFDYSKLQKPFVQRSLFYSKVGLDLVENL | not soluble |
| MAHHHHHHMFISEDLDPEALKNEANIKWKEVIGKGNMEEANIIWRQALKECIKYSMRGIPTNKNRDMQISLRLNLSLYHYKKKEYSDCINQCNIIIDNLLNLEEMLQYYNMGDEEENKKESNNNDGDKGDHISDDKGDHMSDDKGDHKDDDKGDHMSDDKGDHKDDDKGDHMSDDKGDHKDDDKGDHMSDDKDKSNVNLREKKYIIKKDILIKIFLRRASSFLCLQEFNKCNEDLGIIKKLENNDAEAATLEKRMIIEKKDYERKQKELYKKMCNSK | not soluble |
| MAHHHHHHMFRRLSVCVPFATTARFYTPSEELKKLYASDFERAQFPANIVPSDSVTFAKFLYKAVEPKGSFDTILKDFQTIAAAIPKLPVFWQRTVVVSEVSEFKSLSAPTTFTLEWMQSNGMLDLLPDVAEVYETYVNAKMKRVTAKIYVAAGKEQDRALVDKAKKVAEQVVKDNQQFAGYTLVPKVLVDRSIVEGFAVDVQGTYVNEAVGRKKETQASGEVDYTTIPPPRLSKTTWEDNIETEVLRKYLDSLSLYDAEELKSGV | soluble |
| MAHHHHHHMGENRRPSRWSSERYTNLFVPNYIPPELMLYDEGQFLRAFLLRVLSIDLNRLIETKRCGDYFINIPLVPEYNSEGQRTNTPDELVAEKRLKVMDELTNLLRQHSELELNAKTQKEVVRKRYFTQEEMDNGAYGAILGARGMVHQELERLTKCKIVLAGRGITNALKDTSANAARVALEDPHARITAPNEQALQHAMERIEWILSDDPEALEFRENNRKRMAQIEGRYDPRTWVSLAERNAKNPRRMGEKREREEEAKEELDADLQEFLDEL | soluble |
| MAHHHHHHMGFPAVPFVEDKNDAEILRDEADDEFASYFKEGRKPKILITTGEHPCFRTKLFVKEALWLFPNSIYRPRKKYNLKEITQFCINREFTDLIVVTDRLKEPYNLIISHLPEGPTAMFRVSNFMTHAQLKDPAPRTEHYPELIFKNFDTRLGRRINRLLECLFPATRDYEGRAVATFHNQRDYIFMRTHRYIFDSLDAVRIQEMGPRFTLRLLSLQSGTFDTQFGEYEWFRKKEHDDDKLEWYL | soluble |
| MAHHHHHHMGGGGSIPRKKATSARQVSTDRSVRRLQTKRRVGEPRFNGIGYVTIPLCIQEDLPPPPEDDDAPDDSTRKFAWFVEDLDMPGEWELYPPDACERLDEARRSNMTECLVVVKKRMCTVNLVKMEHLCAGSNARPRQVKRVEVEVSNGTTTYQEKRKVPNDPFAEDSPRETPSPMELFESEENAVHDVGSATTTKAEPEKVPNLVRSILTEKTTSYAMSLTSNGTTVFSGTKAQMLRWDLKTAEVTAEFDVQDSVVLSNALSHDERHVVAGRSDCTASMHSVDGSTSCVFSGHQRKVYGVDFLLGDDRVATASMDCTVRIWDASTSTCVQTIGCSAASVFTVVTSDLNNHFALSAGDDNIIYAHDLRSGGDCVIDRFIDHASTVWCCALRNDEQVFASCGIDGVIRVWDIRNSSSPTLLLRHHEKPVHMVKFTPRGRAILSCGRDDNMRLTDAMTGEPLWRAVAHRRFVYRIAFSKEKKFILSSGGDHRVNVWNYDYIDRM | not soluble |
| MAHHHHHHMGKGAVHPNGSNFCRAIKYNIVDKMRMLVETNLYDRPRWLEWAERAPPIEIHNISLKSRYNNNKYIDLVKFLLKKYPHLRFQDCYVEGNNNVKGYDFFRNDHIITQMATHQLYYMNRGYGKKDALQKVEKEFYNRRMELEKKQKINMCLSIDKKIKPLYTDGYAYLYEKMADNEKAHLGLILKKLRAMREKLEKEQGGDGAQPHT | not soluble |
| MAHHHHHHMGTLEAQTQGPGSMQYPPRLGFGTWQAPPEAVQTAVETALMTGYRHIDCAYVYQNEEAIGRAFGKIFKDASSGIKREDVWITSKLWNYNHRPELVREQCKKTMSDLQVDYLDLFLVHWPLAFVRNDVGDLFPKDAEGRAMLEKVPLADTWRAMEQLVEEGLVKHIGVSNYTVPLLADLLNYAKIKPLVNQIEIHPWHPNDATVKFCLDNGIGVTAYSPMGGSYADPRDPSGTQKNVILECKTLKAIADAKGTSPHCVALAWHVKKWNTSMYSVIPKSQTPARIEANFKCTEVQLSDDDMDAINNIHLNKRIRFCDPAIFWKVPLFD | soluble |
| MAHHHHHHMHPYLFICKEGNNNNGSTTNLKSGMSLSDRRHTPLGRNLSESTELSQSLSSRSGGSSPIPRPNLDDITRRLLEENEGMLFEINKLTRELTDERAKVSGLHETLAERSAELELMKEKLSDATVVATDDTGKPINYKRECDGLAADNNRLVKEYERVCTELEKRTEEIRREMGDQRDEAEGKTISVQVEQFNREITALVPTVEHIVNSLKRCVVTGGIAEERILENAQKELHTMRRITDTVRRMNAGDETCVKGLLTQIQKGEQLTAPGDVAVVIRWMVVRAFEAGLQSAEGNLRTLVDILNNSKGRYTSENATTGSGEVPASGISVRQMFRLLKM | not soluble |
| MAHHHHHHMHQHGKTSGTDGSGATVSQSSSGFMETPWRIFEYGVASEQGSRKTMEDQHAMVAESFPFFAVYDGHGGTQCAEFLRDNLHTFIFGQPEIETDPERATRAGIAEAENAFLTKCADEKIESGSTCAVALVVDDTLIAGNVGDSEIVLCRAGAPIVLSTKHSIQDNVSEGERVKACGGRIISNRVGHPKFNPQLLSLAITRAIGDAGFKLREFTDGKPSGVIADAETRSTRLTDDDKFLIIGCDGLWDVMSYEAAVQLCSRLASEGETPKAIAGSLCQEALRQGSTDNVTCIYINIRAKSSAPGCGQLGSGDPLHNM | soluble |
| MAHHHHHHMHYTGVGIEDVKVRFNEKMRLSASLQRRKSEEVEWSLFWEALNKGDGKMISEALSGASVSGATQQIGMAEACAVLLKGAGKEWHTRIVDDLPFSTVTRCSLLHAALAEKRPDVAAEMLSHARVTRSDLSSLWPLMAKCTWEEVLRMISACPKNAVPYNQALPFILKQGCSLQTLSEHLEHARVLGDADVVAPLLAYAVEMEDWPYVERCVGHLVDIGKITPSAREAFGHLCKLHGPKRVCHRLMEHHVELSSMTIEDLESLRF | not soluble |
| MAHHHHHHMIRRKLYCSFLFLAILETFKVNQRWSIFISAWYAHEDVDSDYSHSKLYEVLGVHKYATTEEIKKAYRKLSKKYHPDKAKDKNSNNRFNEIAEAYEILGDEEKRKVYDHHGLEAAKNVESNKMDEDPTDHFNIYESFFGGAGGFRREEMKKADSLTLNVEMSLEQLYNGDFFSVIYTRDVNCLRSDDCIMKKKECSGKGYKTVTQQVAPGFIMQNKMRDENCIDRGKAWNPKCSYCPNGMKEEKTIELTLEVEKGMKNNDKIVFEKKGKQEIGYESGDVIFVIQTKKHKVYERKNNDLHQFYEISLKDALIGFSKDIDHISGAPIRINKQTVTFHNEILKVQNKGMPIRDSSKYGDLYIKFLVQFPKYLTEEQKRAISQFL | not soluble |
